As a reminder, the EC50 is the midpoint of the concentration-response curve. Lower therefore signals higher potency in that assay.

Results on two molecules are retold here after US20230038761, “REGULATION OF VON WILLEBRAND FACTOR (VWF)” (BAND THERAPEUTICS, LLC, published 2023).

In series [1] the target is T1, von Willebrand factor (VWF) (Homo sapiens, UniProt P04275 SEQ:764-2813). Nature of the series: ELISA; no OD increase up to 10 uM BT200 after pre-incubation with BT101 at 1:1; dPBS, 37 C. The protocol: (§1) The affinity of BT200, with or without pre-incubation with BT101, for purified human VWF was evaluated using an enzyme-linked immunosorbent assay (ELISA) method. In this study, purified human VWF protein was dissolved in Dulbecco's phosphate buffered saline (dPBS) buffer at a concentration of 10 μg/mL and 100 μL of this solution was added to each well of a Nunc Maxisorp 96-well plate. The plate was incubated overnight at 4° C. The following day, the plate was washed 3 times, followed by blocking with 5% bovine serum albumin (BSA) in dPBS at room temperature for 90 minutes. The blocked plate was then washed 3 times before adding either BT200 at concentrations of 0.3, 1, 3, 10, 30, 100, 300, 1000, 3000, and 10000 nM or a pre-incubated 1:1 molar ratio of BT101:BT200 at the same concentrations. BT101 and BT200 were mixed and incubated at 37° C. for 30 minutes prior to addition to the plate.
T1 sequence (P04275 764-2813 Q852R): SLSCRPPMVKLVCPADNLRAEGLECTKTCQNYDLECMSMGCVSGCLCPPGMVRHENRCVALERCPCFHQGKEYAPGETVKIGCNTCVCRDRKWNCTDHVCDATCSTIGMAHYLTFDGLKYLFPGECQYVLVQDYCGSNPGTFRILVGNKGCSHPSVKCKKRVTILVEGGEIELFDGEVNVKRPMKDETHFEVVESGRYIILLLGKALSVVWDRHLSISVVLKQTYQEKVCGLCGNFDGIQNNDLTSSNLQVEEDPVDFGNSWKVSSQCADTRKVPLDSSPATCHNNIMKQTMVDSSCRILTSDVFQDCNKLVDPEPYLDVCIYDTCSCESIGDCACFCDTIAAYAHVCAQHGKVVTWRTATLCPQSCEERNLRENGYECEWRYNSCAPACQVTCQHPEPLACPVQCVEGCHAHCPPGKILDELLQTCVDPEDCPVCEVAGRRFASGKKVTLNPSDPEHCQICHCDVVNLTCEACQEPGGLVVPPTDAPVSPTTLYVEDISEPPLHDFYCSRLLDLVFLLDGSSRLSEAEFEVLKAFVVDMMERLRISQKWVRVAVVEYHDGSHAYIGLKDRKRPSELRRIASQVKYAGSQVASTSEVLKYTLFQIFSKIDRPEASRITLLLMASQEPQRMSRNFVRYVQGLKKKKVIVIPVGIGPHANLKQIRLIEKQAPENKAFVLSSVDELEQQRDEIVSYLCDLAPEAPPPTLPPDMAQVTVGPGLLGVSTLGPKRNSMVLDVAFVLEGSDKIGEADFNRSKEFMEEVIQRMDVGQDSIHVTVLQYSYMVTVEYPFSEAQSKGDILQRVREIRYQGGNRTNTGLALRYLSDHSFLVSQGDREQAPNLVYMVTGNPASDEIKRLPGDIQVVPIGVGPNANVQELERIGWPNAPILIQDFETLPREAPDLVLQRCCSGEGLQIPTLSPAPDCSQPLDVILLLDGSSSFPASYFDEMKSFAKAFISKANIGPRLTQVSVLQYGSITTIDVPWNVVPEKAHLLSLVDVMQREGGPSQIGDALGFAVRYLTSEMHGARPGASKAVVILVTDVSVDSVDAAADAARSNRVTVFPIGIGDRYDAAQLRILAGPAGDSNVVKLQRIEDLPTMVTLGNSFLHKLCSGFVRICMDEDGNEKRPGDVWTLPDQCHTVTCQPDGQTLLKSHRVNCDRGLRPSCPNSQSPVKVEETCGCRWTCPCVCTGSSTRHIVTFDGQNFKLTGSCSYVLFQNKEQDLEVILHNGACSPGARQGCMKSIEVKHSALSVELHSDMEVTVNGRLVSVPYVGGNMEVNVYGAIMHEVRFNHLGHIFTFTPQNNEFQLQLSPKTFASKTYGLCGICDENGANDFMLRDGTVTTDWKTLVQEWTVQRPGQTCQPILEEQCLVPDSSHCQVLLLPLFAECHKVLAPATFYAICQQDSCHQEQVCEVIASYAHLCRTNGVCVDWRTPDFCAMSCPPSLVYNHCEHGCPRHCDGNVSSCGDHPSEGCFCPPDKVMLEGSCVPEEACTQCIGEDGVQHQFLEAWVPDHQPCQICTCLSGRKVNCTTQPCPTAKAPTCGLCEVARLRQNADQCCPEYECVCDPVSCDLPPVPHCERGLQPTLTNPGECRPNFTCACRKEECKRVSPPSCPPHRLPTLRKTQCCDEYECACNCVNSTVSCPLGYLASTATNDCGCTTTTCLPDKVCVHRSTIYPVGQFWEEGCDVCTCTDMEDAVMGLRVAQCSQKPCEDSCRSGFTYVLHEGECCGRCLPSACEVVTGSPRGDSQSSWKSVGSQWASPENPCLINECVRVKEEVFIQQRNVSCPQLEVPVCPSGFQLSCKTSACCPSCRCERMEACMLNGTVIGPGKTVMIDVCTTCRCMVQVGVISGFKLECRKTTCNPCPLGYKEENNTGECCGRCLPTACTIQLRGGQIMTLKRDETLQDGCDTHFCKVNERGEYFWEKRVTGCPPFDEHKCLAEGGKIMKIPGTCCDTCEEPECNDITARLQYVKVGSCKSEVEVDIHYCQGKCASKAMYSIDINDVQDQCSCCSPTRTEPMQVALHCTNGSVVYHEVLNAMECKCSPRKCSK
(§2) Plates were then incubated at 37° C. for 2 hours. Each plate was then washed 3 times and 100 μL of anti-PEG antibody at 1 μg/mL in 1% BSA/dPBS was added to each well and incubated for 1 hour at room temperature. […] To stop the reaction, 100 μL of 2 N H₂SO₄ was added to each well and the plate was then read at 450 nm for absorbance and the mean absorbance under each set of conditions was recorded.
In general terms: An ELISA detects its analyte on a solid surface through an enzyme-linked reagent.

Series [2] concerns the target T1, von Willebrand factor (VWF). Nature of the series: ELISA with anti-PEG detection; dPBS, 37 C, 2 h. The protocol: as §1, §2

B1: BT200/BT101 duplex (dsRNA)
RNA 1: GCCAGGGACCUAAGACACAUGUCCCUGGC
RNA 2: ACAUGUGUCUUAGGUCCCUGGCT
modifications: all residues 2'-OMe in both strands; BT200 5' PEG40K-NH; 3' idT on both strands
Turning to B1, the binding result in series [1] is reported as “no binding”.

In series [2], GCCAGGGACCUAAGACACAUGUCCCUGGC (ssRNA, all residues 2'-OMe; 5' PEG40K-NH; 3' idT (final t of SEQ 6)) [BT200] yielded a half-maximal effective concentration (EC50) of 331 nM.
